{"source": "paper PMC3931812", "experiment_in_all_cases": "other fluorescence titration; Ca2+ titration at saturating CaM: 0.5 µM FRET biosensor, 2 µM X-Rhod5F, 0.1 mg/mL BSA, 0.25 mM Br2BAPTA (3 mM BAPTA and 700 µM CaM for the SMD1 biosensors), 25 mM Tris, 100 mM KCl, pH 7.5, 22°C; start nominally Ca2+-free; free Ca2+ from X-Rhod5F; EC50(Ca2+) from Hill fits", "key": {"[1]": {"biological_target": "BSGPER_(242–259) (human) (UniProt Q99527)"}, "[2]": {"biological_target": "BSGPER_(83–93) (human) (UniProt Q99527)"}, "[3]": {"biological_target": "BSGPER_(330–351) (human) (UniProt Q99527)"}, "[4]": {"biological_target": "BSGPER_(150–175) (human) (UniProt Q99527)"}}, "data": [{"substance": "Calmodulin (CaM), recombinant, from the rat CaMI gene (from UniProt P0DP29 1-149) (natural protein)", "values": [{"measurement": "EC50(Ca2+) of complex formation", "setting": "[1]", "result": 5150, "unit": "nM"}, {"measurement": "EC50(Ca2+) of complex formation, species 1", "setting": "[2]", "result": 130, "unit": "nM"}, {"measurement": "EC50(Ca2+) of complex formation, species 2", "setting": "[2]", "result": 3710, "unit": "nM"}, {"measurement": "EC50(Ca2+) of complex formation", "setting": "[3]", "result": 750, "unit": "nM"}, {"measurement": "EC50(Ca2+) of complex formation", "setting": "[4]", "result": 2380, "unit": "nM"}]}]}
